# Experimental data published in the supplement of paper PMC12636428.
# Test system: Saccharomyces cerevisiae
# Test: transcriptional activation domain activity (GFP:mCherry ratio, weighted mean of sorted bins, harmonized to initial dataset scale) (arbitrary fluorescence ratio units); higher = stronger transcriptional activation
# Conditions: beta-estradiol 1 µM; induction time 4 h
# In short: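 Each value is an activation activity: the read-weighted mean of bin median fluorescence, averaged across barcodes, then mapped linearly to the initial dataset scale. The tiles, fused to an estradiol-inducible synthetic transcription factor, sat at the yeast URA3 locus in GFP-reporter diploids. Cells spent 4 hours at 30 °C in SC with 1 uM beta-estradiol before sorting into 8 GFP:mCherry bins, and tiles below 50 reads were removed.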
row,Sequence,transcriptional activation domain activity
1,CDSGNEFDGRIGLRVSSIFVILIGSLIGAMLPVVLARSSKMRVPKLAFFVAKY,36900
2,MLLKVSEPFSLFVYISGSAITLFSFFKFLFSLFFLLLILFFFPLFFFFPIVIV,80000
3,QSGFNIHLKDAGAGAHMELLTLDQILMFFQGLNNLNLLYFWGVGFDRLAILAF,59200
4,KLRKKQHGSNKDTIPSSQSRDIANDYDRGSTDNNLVTTTSTSSIFHDEDLTFF,44400
5,LLLLIFAVFLRACDILSSQWLIWWTDGIVLGASHDLNFWKGWYMFIVWISLFF,54800
6,VCVLHLIVIALSLTDLILPSLIWGLTAIFLGVYAIVQKLSIALIVQPQLFGTL,65700
7,RADHARRKSPARSRSASASSRSSSRSRSGSRGSDQANRRRRAASPGAQGDGRK,39900
8,MCDLFYTHLISPLFPNMPFWVFFCRLFLLFSLLQCSFICGPFVAVLSYCWLSF,54600
9,EDKAAEDGAAKKPKTTELPGGVKIQDMKVGSGPQAKPGKKIGMRYIGKLQGSN,30600
10,EWMKVVYGFDQKPIPSGACSGSIAKIFGTNTSAFELLVLKRRIMGPCWIQIKK,55800
11,SFTLYTIGICGLCDQFGLFCWVHMSLLIIVLSSHFIVNNILEGLIWFWVPASL,31400
12,SEEDEIKAGEEVPKKRRRRQALSCTECKRRKIKCDRQHPCGPCVRRTEADKCH,52300
13,YILRLFRDYVFFQVDANGKRTFDLGHMMECLLRMDCGSDELICLTSSDEKNVI,49100
14,ARQSDDDGQVKVYQRGSASLVAMLLTNLAPNETLIALINLIADRPWLKALYAL,80500
15,FSWVELCLSVTWWFFPACLLLSDTLVLVYLTPGLDVLVPFSMIFVYCFLGLPP,52300
16,GAAASTPAAPQKPAGGLFGGAGLGAASKPADAAASSSSSGLFGAKPAESAPAA,30900
17,MSNWLWIFLLLFFAFFCRSFTSCFIRLSVHIYTHCCMCSLGGLLVYLARSLFF,44200
18,LIVVCPCLNRAHPTCLKELQTDYICNMCNSIYQLKYIRFAQLLCFACHVLSLA,84300
19,YSIQVFMVPQLAICKVDSIGNVIGGQGGCYNLIPVFDWVRRCVVSIFLVFMVA,71500
20,FRSGHSFPRKFGFCVEFTYNFISLLFNWFGLVSASIFFFCFSLFLFFVFYVLT,25000
21,EKGGGRDGETAAVEGEKEVQNGDAQTEADGNASTDGGTKRRRKGKKAAAEADD,24100
22,FICLLLSTTLRRLRWCLIRYIRNNYMEVCVCLVTIGVVAFSRLSWTLWVGAYV,50000
23,SGSGAEGASGTEHRRRASTRGRGRGRGRGGRAGRGGRAKTNGEGAELAGEEAG,< 6570
24,TTTLTGRPPSTFSGPETSNGPPTGSLPSKFVHDLMSNSPNVSSISMFPDWSMG,21600

row,Sequence,transcriptional activation domain activity
1,AIFMSDGSQALCRLIYLIGIATRFFGLSMMLCIVVDVLNLVTFYLNVFYLIQW,47500
2,RKEAMDFDAELKRRNTHLYCAIIDLEKEMQLVAYLVCACLKKVTFLHKVCVLE,67900
3,SCLAVITWDVLNFLIVDCHIIFYRKFNWRVLVFIVARLSPYCFFLSLSISLTS,60900
4,MDFNGVVFCPVYISLLPLFFYPYNIYHFNDSLMRPNEISVAVYLLLILLNFQD,51000
5,DLMMVVFGVLLSSLFFVFVFVWYCYLLLSCFLSFFLSLVVSWCWLGLHIHVYS,43500
6,MKGVCLKVGVVRPKKPNSGERKTARVRLSNGRQVTAYISGEGHNIQQHSVVLV,53500
7,INILIFICLPYRNFQFFLYLVPMSCSLTPCHWQVIASKLEILLLSTYWITFVA,61200
8,MILRAFFLLTVYFVCSPFFFLIIYLLFYDRPDSTLSWIWIWIHTFLPSLLFPS,42500
9,NCLLHIMRFLPFLELKQFIIAYRRFDIYACAESAIHLQYLDFFNFWMDPSFLL,49700
10,MVPLRSFPILYALCKVLLFITILLLLIVFVCLGLQHCLLFVGCWLCVQIWCGG,23300
11,TDDAPRVKTKAEKEKEKKEKEKQRKKEMAAKKKANAPAKQEAAKPAETKAAAA,41100
12,FFCSLFVSPVTLFFIFYSYCKRSFAISLLLMITIYWSFLLGLTASILVYRIWL,57500
13,MTNRLHIICHICVFYGYVLMFPAITSYYFILLCILILILHLFIFILAHFYKDR,37300
14,MSSSEDEPRPRKARSKLSPPASPDSRAQSAPAVPSPVKLVRAKPRARAKAASL,42700
15,VENPVTDDNGNLKLELPDNLDNADFSKLLEFDAKNDEALFNSNELLSHTMDPV,94700
16,MVHIVVVLCIVFCLLLCFKRRAQQLSSYCHASLRYFNLPPNFHQYYEQRFILV,78400
17,MGRVVGVGSFYVWICHFFYIFSFFFSPMMNWTGSGLVGCVMALLYFILSFSFS,46200
18,MVLHMRGHVQNKIKITLFTAFFFFVQIRSLGWILFLGFSFSALFFPIFFIFFI,55000
19,KSKKKRRSKRKPKNQKKKTTGKDAQEHLDDEQTRNLEDGQDDKKDEQDDDNKK,31400
20,MYGLVFLLPLFCSLLLFLFCFCCLSPRPTWGLFVSIELFLQARDGLVNWLLAF,50100
21,EEDLWTMTNLFVSPVARSLPCTSLLLCLCSLLVYLLASLTFPYLAFFLVFILF,53000
22,HLLYVYLVLIAVVISSYRCFLNVSTRSIVICLLTHAFWPPLTFIIVCSAFWIP,73100
23,GDGTPTLSWRHDLGGGEVRDLEVTVVKVHSGEVTLLSSATLKLVLVFHLSSTI,43400
24,EAPVEAPIEVPVEAPVEAPVEAEKPAEEIETPAEAVVEKPAEETEKPAEAVVE,31900
